Assay [1] concerns the target human/mouse 5T4 chimera E3 (human/mouse chimera) (UniProt Q13641). The assay can be described thus: flow cytometry, chimera-transfected cells. On the technique in general: Flow cytometry measures light scatter and fluorescence of single cells or particles in a stream.
The target in assay [2] is human/mouse 5T4 chimera E7 (human/mouse chimera) (UniProt Q13641). Briefly: flow cytometry, chimera-transfected cells.
Assay [3] has as its target human/mouse 5T4 chimera E4 (human/mouse chimera) (UniProt Q13641). The assay can be described thus: flow cytometry, chimera-transfected cells.
Assay [4] addresses human/mouse 5T4 chimera E2 (human/mouse chimera) (UniProt Q13641). Briefly: flow cytometry, chimera-transfected cells.
For assay [5], the target named is human/mouse 5T4 chimera E5 (human/mouse chimera) (UniProt Q13641). Briefly: flow cytometry, chimera-transfected cells.
The target of assay [6] is human/mouse 5T4 chimera E1 (human/mouse chimera) (UniProt Q13641). The assay can be described thus: flow cytometry, chimera-transfected cells.
For assay [7], the target named is human/mouse 5T4 chimera E6 (human/mouse chimera) (UniProt Q13641). Briefly: flow cytometry, chimera-transfected cells.
Assay [8] deals with human/mouse CD137 chimera 1553 (human/mouse chimera) (UniProt Q07011). The assay can be described thus: flow cytometry, transfected 293-F cells.
Assay [9] has as its target human/mouse CD137 chimera 1552 (human/mouse chimera) (UniProt Q07011). The assay can be described thus: flow cytometry, transfected 293-F cells.
For assay [10], the target named is human/mouse CD137 chimera 1551 (human/mouse chimera) (UniProt Q07011). The assay can be described thus: flow cytometry, transfected 293-F cells.
For assay [11], the target named is human/mouse CD137 chimera 1555 (human/mouse chimera) (UniProt Q07011). The assay can be described thus: flow cytometry, transfected 293-F cells.
Assay [12] concerns the target human/mouse CD137 chimera 1554 (human/mouse chimera) (UniProt Q07011). Briefly: flow cytometry, transfected 293-F cells.
Assay [13] deals with human/mouse CD137 chimera 1550 (human/mouse chimera) (UniProt Q07011). Briefly: flow cytometry, transfected 293-F cells.
For assay [14], the target named is human/mouse CD137 chimera 1553 (human/mouse chimera) (UniProt Q07011). The assay can be described thus: flow cytometry, transfected 293-F cells, Exp 2.
Assay [15] concerns the target human/mouse CD137 chimera 1552 (human/mouse chimera) (UniProt Q07011). Briefly: flow cytometry, transfected 293-F cells, Exp 2.
Assay [16] addresses human/mouse CD137 chimera 1551 (human/mouse chimera) (UniProt Q07011). The assay can be described thus: flow cytometry, transfected 293-F cells, Exp 2.
Assay [17] addresses human/mouse CD137 chimera 1555 (human/mouse chimera) (UniProt Q07011). Briefly: flow cytometry, transfected 293-F cells, Exp 2.
Assay [18] has as its target human/mouse CD137 chimera 1554 (human/mouse chimera) (UniProt Q07011). Briefly: flow cytometry, transfected 293-F cells, Exp 2.
The target in assay [19] is human/mouse CD137 chimera 1550 (human/mouse chimera) (UniProt Q07011). The assay can be described thus: flow cytometry, transfected 293-F cells, Exp 2.
Assay [20] has as its target human/mouse CD137 chimera 1553 (human/mouse chimera) (UniProt Q07011). Briefly: flow cytometry, transfected 293-F cells, Exp 1.
Assay [21] concerns the target human/mouse CD137 chimera 1552 (human/mouse chimera) (UniProt Q07011). Briefly: flow cytometry, transfected 293-F cells, Exp 1.
In assay [22] the target is human/mouse CD137 chimera 1551 (human/mouse chimera) (UniProt Q07011). The assay can be described thus: flow cytometry, transfected 293-F cells, Exp 1.
Assay [23] addresses human/mouse CD137 chimera 1555 (human/mouse chimera) (UniProt Q07011). Briefly: flow cytometry, transfected 293-F cells, Exp 1.
Assay [24] concerns the target human/mouse CD137 chimera 1554 (human/mouse chimera) (UniProt Q07011). Briefly: flow cytometry, transfected 293-F cells, Exp 1.
Assay [25] addresses human/mouse CD137 chimera 1550 (human/mouse chimera) (UniProt Q07011). The assay can be described thus: flow cytometry, transfected 293-F cells, Exp 1.

B1: 1206/1207 (antibody, V domains shown)
VH: EVQLLESGGGLVQPGGSLRLSCAASGFTFSGSSMSWVRQAPGKGLEWVSSIYYSGSGTYYADSVKGRFTISRDNSKNTLYLQMNSLRAEDTAVYYCARYGRNVHPYNLDYWGQGTLVTVSS
VL: DIQMTQSPSSLSASVGDRVTITCRASQSISSYLNWYQQKPGKAPKLLIYAASSLQSGVPSRFSGSGSGTDFTLTISSLQPEDFATYYCQQGYYYLPTFGQGTKLEIK
Take B1: the normalized % positive cells amounted to 0.25 in assay [1]; 0.94 in assay [2]; 0.52 in assay [3]; 0.74 in assay [4]; 0.9 in assay [5]; 0.96 in assay [6]. This molecule also registered a normalized % positive cells in [7] of 0.94.

B2: 1618/1619 (antibody, V domains shown)
VH: EVQLLESGGGLVQPGGSLRLSCAASGFTFSYGSMYWVRQAPGKGLEWVSSISSGSGSTYYADSVKGRFTISRDNSKNTLYLQMNSLRAEDTAVYYCARSSYYGSYYSIDYWGQGTLVTVSS
VL: DIQMTQSPSSLSASVGDRVTITCRASQSISSYLNWYQQKPGKAPKLLIYAASSLQSGVPSRFSGSGSGTDFTLTISSLQPEDFATYYCQQYYDNLPTFGQGTKLEIK
In the case of B2, the relative MFI normalized to full-length human CD137 turned out to be 1.24 in assay [8]; 1.2 in assay [9]; 0.67 in assay [10]; 0.12 in assay [11]; 1.01 in assay [12]; 0.11 in [13].

B3: 1212/1213 (antibody, V domains shown)
VH: EVQLLESGGGLVQPGGSLRLSCAASGFTFSSYAMSWVRQAPGKGLEWVSYISSYGGYTSYADSVKGRFTISRDNSKNTLYLQMNSLRAEDTAVYYCARYHSGVLDYWGQGTLVTVSS
VL: DIQMTQSPSSLSASVGDRVTITCRASQSISSYLNWYQQKPGKAPKLLIYAASSLQSGVPSRFSGSGSGTDFTLTISSLQPEDFATYYCQQYYYHYLLTFGQGTKLEIK
In the case of B3, the normalized % positive cells in [1] came to 0.93; in assay [2], 0.88; in assay [3], 1; in assay [4], 0.9; in assay [5], 0.84; in assay [6] it was 0.89. The normalized % positive cells in assay [7] came to 0.03.

B4: 1626/1627 (antibody, V domains shown)
VH: EVQLLESGGGLVQPGGSLRLSCAASGFTFGGYSMYWVRQAPGKGLEWVSSIGGYYYSTYYADSVKGRFTISRDNSKNTLYLQMNSLRAEDTAVYYCARSYYGSIDYWGQGTLVTVSS
VL: DIQMTQSPSSLSASVGDRVTITCRASQSISSYLNWYQQKPGKAPKLLIYAASSLQSGVPSRFSGSGSGTDFTLTISSLQPEDFATYYCQQGTGYGPLTFGQGTKLEIK
Take B4: the relative MFI normalized to full-length human CD137 in assay [8] was found to be 0.14; in assay [9] it was 0.11; in [10], 0.11; in assay [11], 0.29; in [12] it was 0.12; in assay [13], 0.1.

B5: 1202/1203 (antibody, V domains shown)
VH: EVQLLESGGGLVQPGGSLRLSCAASGFTFYGSSMSWVRQAPGKGLEWVSSIYYGSSGTYYADSVKGRFTISRDNSKNTLYLQMNSLRAEDTAVYYCARSYYGYFDYWGQGTLVTVSS
VL: DIQMTQSPSSLSASVGDRVTITCRASQSISSYLNWYQQKPGKAPKLLIYAASSLQSGVPSRFSGSGSGTDFTLTISSLQPEDFATYYCQQYYTVVPFTFGQGTKLEIK
As to B5, the relative MFI normalized to full-length human CD137 in assay [8] was 0.65; in assay [9] it was 0.06; in assay [10], 0.05; in [11] it was 0.26; in [12], 0.51; in assay [13] it was 0.05.

B6: 1204/1205 (antibody, V domains shown)
VH: EVQLLESGGGLVQPGGSLRLSCAASGFTFSSYYMGWVRQAPGKGLEWVSGIGSYYGYTGYADSVKGRFTISRDNSKNTLYLQMNSLRAEDTAVYYCARAYYDYNYYYAYFDYWGQGTLVTVSS
VL: DIQMTQSPSSLSASVGDRVTITCRASQSISSYLNWYQQKPGKAPKLLIYAASSLQSGVPSRFSGSGSGTDFTLTISSLQPEDFATYYCQQSVPHYPFTFGQGTKLEIK
In the case of B6, the relative MFI normalized to full-length human CD137 in assay [8] was 0.85; in assay [9] it was 0.13; in assay [10], 0.11; in assay [11] it was 0.28; in [12], 0.73; in assay [13] it was 0.07.

B7: 1200/1201 (antibody, V domains shown)
VH: EVQLLESGGGLVQPGGSLRLSCAASGFTFSSYAMSWVRQAPGKGLEWVSGISGGGGGTYYADSVKGRFTISRDNSKNTLYLQMNSLRAEDTAVYYCARDVAYFDYWGQGTLVTVSS
VL: DIQMTQSPSSLSASVGDRVTITCRASQSISSYLNWYQQKPGKAPKLLIYAASSLQSGVPSRFSGSGSGTDFTLTISSLQPEDFATYYCQQYYIPHTFGQGTKLEIK
With B7, the relative MFI normalized to full-length human CD137 in assay [8] worked out at 0.65; in assay [9] it was 0.05; in assay [10], 0.04; in assay [11], 0.24; in [12], 0.84; in assay [13], 0.05.

B8: 1214/1215 (antibody, V domains shown)
VH: EVQLLESGGGLVQPGGSLRLSCAASGFTFSSYAMSWVRQAPGKGLEWVSSIGSGGGYTGYADSVKGRFTISRDNSKNTLYLQMNSLRAEDTAVYYCARVGHPFDYWGQGTLVTVSS
VL: DIQMTQSPSSLSASVGDRVTITCRASQSISSYLNWYQQKPGKAPKLLIYAASSLQSGVPSRFSGSGSGTDFTLTISSLQPEDFATYYCQQDAYPHTFGQGTKLEIK
For the molecule B8, the relative MFI normalized to full-length human CD137 in assay [14] came out at 0.15; in assay [15], 0.13; in [16] it was 0.15; in assay [17], 0.45; in assay [18], 0.15; in [19], 0.14. For the same molecule, the relative MFI normalized to full-length human CD137 came out at 0.41 in assay [20]; 0.32 in assay [21]; 0.07 in [22]; 0.3 in [23]; 0.26 in assay [24]; 0.06 in [25].

B9: 1620/1621 (antibody, V domains shown)
VH: EVQLLESGGGLVQPGGSLRLSCAASGFTFSGYYMYWVRQAPGKGLEWVSGISSSGSYTYYADSVKGRFTISRDNSKNTLYLQMNSLRAEDTAVYYCARSVGPYFDYWGQGTLVTVSS
VL: DIQMTQSPSSLSASVGDRVTITCRASQSISSYLNWYQQKPGKAPKLLIYAASSLQSGVPSRFSGSGSGTDFTLTISSLQPEDFATYYCQQGVGPYTFGQGTKLEIK
Turning to B9, the relative MFI normalized to full-length human CD137 in assay [8] came to 0.17; in assay [9], 0.18; in assay [10] it was 0.33; in assay [11], 0.32; in [12], 0.17; in [13], 0.17.

The values are drawn from patent US20220213213A1.
